According to patent publication US20210388087A1 (Chugai, published 2021):

Target: T1, CD3 epsilon homodimer protein (UniProt P07766 23-126)
T1 construct: also called CD3 (CD3 epsilon)
Test: SPR, CD3 epsilon homodimer on chip, one-arm antibody as analyte;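 further: surface plasmon resonance at 25 °C with CD3 epsilon homodimer amine-coupled to a CM4 sensor chip, antibody injected as analyte, HBS-EP+ as running buffer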
Procedure: An appropriate amount of CD3 epsilon homodimer protein was immobilized onto Sensor chip CM4 (GE Healthcare Japan Corp.) by the amine coupling method. Then, the antibody having an appropriate concentration was injected thereto as an analyte and allowed to interact with the CD3 epsilon homodimer protein on the sensor chip. Then, the sensor chip was regenerated by the injection of 10 mmol/L glycine-HCl (pH 1.5). The assay was conducted at 25 degrees C., and HBS-EP+(GE Healthcare Japan Corp.) was used as a running buffer. […] Each parameter was calculated using Biacore T200 Evaluation Software (GE Healthcare Japan Corp.).

T1 sequence (P07766 23-126): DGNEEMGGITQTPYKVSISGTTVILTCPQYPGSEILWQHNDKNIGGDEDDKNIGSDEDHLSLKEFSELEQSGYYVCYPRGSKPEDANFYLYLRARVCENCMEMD

KD ratio (KD of CE115HA000/KD of altered form)	Binder
0.56	CE115HA000 K52bD (antibody, human IgG1, kappa, L234A L235A, N297A, name in Kabat numbering, one-arm antibody) heavy: QVQLVESGGGVVQPGRSLRLSCAASGFTFSNAWMHWVRQAPGKGLEWVAQIKADSNNYATYYAESVKGRFTISRDDSKNSLYLQMNSLKTEDTAVYYCRYVHYGAYYGVDAWGQGTTVTVSSASTKGPSVFPLAPSSKSTSGGTAALGCLVKDYFPEPVTVSWNSGALTSGVHTFPAVLQSSGLYSLSSVVTVPSSSLGTQTYICNVNHKPSNTKVDKKVEPKSCDKTHTCPPCPAPEAAGGPSVFLFPPKPKDTLMISRTPEVTCVVVDVSHEDPEVKFNWYVDGVEVHNAKTKPREEQYASTYRVVSVLTVLHQDWLNGKEYKCKVSNKALPAPIEKTISKAKGQPREPQVYTLPPSRCELTKNQVSLSCAVKGFYPSDIAVEWESNGQPENNYKTTPPVLDSDGSFFLVSKLTVDKSRWQQGNVFSCSVMHEALHNHYTQKSLSLSPDYKDDDDK EPKSSDKTHTCPPCPAPELLGGPSVFLFPPKPKDTLMISRTPEVTCVVVDVSHEDPEVKFNWYVDGVEVHNAKTKPREEQYNSTYRVVSVLTVLHQDWLNGKEYKCKVSNKALPAPIEKTISKAKGQPREPQVCTLPPSRDELTKNQVSLWCLVKGFYPSDIAVEWESNGQPENNYKTTPPVLDSDGSFFLYSKLTVDKSRWQQGNVFSCSVMHEALHNRYTQKSLSLSP light: DIVMTQSPLSLPVTPGEPASISCRSSQSLVHSNRNTYLHWYQQKPGQAPRLLIYKVSNRFSGVPDRFSGSGSGTDFTLKISRVEAEDVGVYYCGQGTQVPYTFGQGTKLEIKRTVAAPSVFIFPPSDEQLKSGTASVVCLLNNFYPREAKVQWKVDNALQSGNSQESVTEQDSKDSTYSLSSTLTLSKADYEKHKVYACEVTHQGLSSPVTKSFNRGEC
0.61	CE115HA000 K52bL (antibody, human IgG1, kappa, L234A L235A, N297A, name in Kabat numbering, one-arm antibody) heavy: QVQLVESGGGVVQPGRSLRLSCAASGFTFSNAWMHWVRQAPGKGLEWVAQIKALSNNYATYYAESVKGRFTISRDDSKNSLYLQMNSLKTEDTAVYYCRYVHYGAYYGVDAWGQGTTVTVSSASTKGPSVFPLAPSSKSTSGGTAALGCLVKDYFPEPVTVSWNSGALTSGVHTFPAVLQSSGLYSLSSVVTVPSSSLGTQTYICNVNHKPSNTKVDKKVEPKSCDKTHTCPPCPAPEAAGGPSVFLFPPKPKDTLMISRTPEVTCVVVDVSHEDPEVKFNWYVDGVEVHNAKTKPREEQYASTYRVVSVLTVLHQDWLNGKEYKCKVSNKALPAPIEKTISKAKGQPREPQVYTLPPSRCELTKNQVSLSCAVKGFYPSDIAVEWESNGQPENNYKTTPPVLDSDGSFFLVSKLTVDKSRWQQGNVFSCSVMHEALHNHYTQKSLSLSPDYKDDDDK EPKSSDKTHTCPPCPAPELLGGPSVFLFPPKPKDTLMISRTPEVTCVVVDVSHEDPEVKFNWYVDGVEVHNAKTKPREEQYNSTYRVVSVLTVLHQDWLNGKEYKCKVSNKALPAPIEKTISKAKGQPREPQVCTLPPSRDELTKNQVSLWCLVKGFYPSDIAVEWESNGQPENNYKTTPPVLDSDGSFFLYSKLTVDKSRWQQGNVFSCSVMHEALHNRYTQKSLSLSP light: DIVMTQSPLSLPVTPGEPASISCRSSQSLVHSNRNTYLHWYQQKPGQAPRLLIYKVSNRFSGVPDRFSGSGSGTDFTLKISRVEAEDVGVYYCGQGTQVPYTFGQGTKLEIKRTVAAPSVFIFPPSDEQLKSGTASVVCLLNNFYPREAKVQWKVDNALQSGNSQESVTEQDSKDSTYSLSSTLTLSKADYEKHKVYACEVTHQGLSSPVTKSFNRGEC
0.62	CE115HA000 K52bQ (antibody, human IgG1, kappa, L234A L235A, N297A, name in Kabat numbering, one-arm antibody) heavy: QVQLVESGGGVVQPGRSLRLSCAASGFTFSNAWMHWVRQAPGKGLEWVAQIKAQSNNYATYYAESVKGRFTISRDDSKNSLYLQMNSLKTEDTAVYYCRYVHYGAYYGVDAWGQGTTVTVSSASTKGPSVFPLAPSSKSTSGGTAALGCLVKDYFPEPVTVSWNSGALTSGVHTFPAVLQSSGLYSLSSVVTVPSSSLGTQTYICNVNHKPSNTKVDKKVEPKSCDKTHTCPPCPAPEAAGGPSVFLFPPKPKDTLMISRTPEVTCVVVDVSHEDPEVKFNWYVDGVEVHNAKTKPREEQYASTYRVVSVLTVLHQDWLNGKEYKCKVSNKALPAPIEKTISKAKGQPREPQVYTLPPSRCELTKNQVSLSCAVKGFYPSDIAVEWESNGQPENNYKTTPPVLDSDGSFFLVSKLTVDKSRWQQGNVFSCSVMHEALHNHYTQKSLSLSPDYKDDDDK EPKSSDKTHTCPPCPAPELLGGPSVFLFPPKPKDTLMISRTPEVTCVVVDVSHEDPEVKFNWYVDGVEVHNAKTKPREEQYNSTYRVVSVLTVLHQDWLNGKEYKCKVSNKALPAPIEKTISKAKGQPREPQVCTLPPSRDELTKNQVSLWCLVKGFYPSDIAVEWESNGQPENNYKTTPPVLDSDGSFFLYSKLTVDKSRWQQGNVFSCSVMHEALHNRYTQKSLSLSP light: DIVMTQSPLSLPVTPGEPASISCRSSQSLVHSNRNTYLHWYQQKPGQAPRLLIYKVSNRFSGVPDRFSGSGSGTDFTLKISRVEAEDVGVYYCGQGTQVPYTFGQGTKLEIKRTVAAPSVFIFPPSDEQLKSGTASVVCLLNNFYPREAKVQWKVDNALQSGNSQESVTEQDSKDSTYSLSSTLTLSKADYEKHKVYACEVTHQGLSSPVTKSFNRGEC
0.43	CE115HA000 K52bN (antibody, human IgG1, kappa, L234A L235A, N297A, name in Kabat numbering, one-arm antibody) heavy: QVQLVESGGGVVQPGRSLRLSCAASGFTFSNAWMHWVRQAPGKGLEWVAQIKANSNNYATYYAESVKGRFTISRDDSKNSLYLQMNSLKTEDTAVYYCRYVHYGAYYGVDAWGQGTTVTVSSASTKGPSVFPLAPSSKSTSGGTAALGCLVKDYFPEPVTVSWNSGALTSGVHTFPAVLQSSGLYSLSSVVTVPSSSLGTQTYICNVNHKPSNTKVDKKVEPKSCDKTHTCPPCPAPEAAGGPSVFLFPPKPKDTLMISRTPEVTCVVVDVSHEDPEVKFNWYVDGVEVHNAKTKPREEQYASTYRVVSVLTVLHQDWLNGKEYKCKVSNKALPAPIEKTISKAKGQPREPQVYTLPPSRCELTKNQVSLSCAVKGFYPSDIAVEWESNGQPENNYKTTPPVLDSDGSFFLVSKLTVDKSRWQQGNVFSCSVMHEALHNHYTQKSLSLSPDYKDDDDK EPKSSDKTHTCPPCPAPELLGGPSVFLFPPKPKDTLMISRTPEVTCVVVDVSHEDPEVKFNWYVDGVEVHNAKTKPREEQYNSTYRVVSVLTVLHQDWLNGKEYKCKVSNKALPAPIEKTISKAKGQPREPQVCTLPPSRDELTKNQVSLWCLVKGFYPSDIAVEWESNGQPENNYKTTPPVLDSDGSFFLYSKLTVDKSRWQQGNVFSCSVMHEALHNRYTQKSLSLSP light: DIVMTQSPLSLPVTPGEPASISCRSSQSLVHSNRNTYLHWYQQKPGQAPRLLIYKVSNRFSGVPDRFSGSGSGTDFTLKISRVEAEDVGVYYCGQGTQVPYTFGQGTKLEIKRTVAAPSVFIFPPSDEQLKSGTASVVCLLNNFYPREAKVQWKVDNALQSGNSQESVTEQDSKDSTYSLSSTLTLSKADYEKHKVYACEVTHQGLSSPVTKSFNRGEC
